Molecular target: full-length (FL) human MAP9 (GFP::Human MAP9::strepII) (human) (UniProt Q49MG5)
Sequence (Q49MG5 whole entry): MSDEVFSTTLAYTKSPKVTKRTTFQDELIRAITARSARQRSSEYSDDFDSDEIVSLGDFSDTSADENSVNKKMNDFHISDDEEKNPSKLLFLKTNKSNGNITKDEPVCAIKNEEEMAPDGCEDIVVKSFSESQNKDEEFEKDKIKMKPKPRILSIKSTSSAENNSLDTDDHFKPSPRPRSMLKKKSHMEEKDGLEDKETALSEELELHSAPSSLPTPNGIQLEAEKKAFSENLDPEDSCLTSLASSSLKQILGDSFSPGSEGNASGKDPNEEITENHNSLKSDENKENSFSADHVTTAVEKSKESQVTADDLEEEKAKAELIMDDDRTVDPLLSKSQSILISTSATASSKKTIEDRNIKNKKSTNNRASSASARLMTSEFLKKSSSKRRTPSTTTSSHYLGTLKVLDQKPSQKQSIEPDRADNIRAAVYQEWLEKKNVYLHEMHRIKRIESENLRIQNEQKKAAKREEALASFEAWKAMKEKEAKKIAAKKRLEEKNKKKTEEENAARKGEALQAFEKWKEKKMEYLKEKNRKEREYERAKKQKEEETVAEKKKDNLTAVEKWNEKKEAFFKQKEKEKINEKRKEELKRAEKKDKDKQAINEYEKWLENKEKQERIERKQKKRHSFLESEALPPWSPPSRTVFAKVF

FL KIF1A (Human KIF1A::yBBR::strepII) (from UniProt Q12756 1-1690) (natural protein)
run frequency of FL KIF1A on MTs decorated with MAP9 at low concentrations (<60 nM); slightly inhibited at higher concentrations: 2 fold

— paper doi:10.1101/2025.11.17.688911
